Experimental data taken from publication PMC3276249 (Molecular Microbiology, 2012).

Experiments:
cross-linking = target: the molecule itself; experiment: cross-linking
SEC = target: the molecule itself; experiment: SEC

B1: Bcam0581 of Burkholderia cenocepacia J2315, hexahistidine-tagged (enzyme)
chain: MQLQSHPACRPFYEAGELSQLTAFYEEGRNVMWMMLRSEPRPCFNQQLVTDIIHLARVARDSGLTFDFWVTGSLVPELFNVGGDLSFFVDAIRSGRRDQLMAYARSCIDGVYEIYTGFGTGAISIAMVEGSALGGGFEAALAHHYVLAQKGVKLGFPEIAFNLFPGMGGYSLVARKANRGLAESLIATGEAHAAEWYEDCGLIDETFDAGDAYLATRTFIDVTKPKLNGIRAMLRARERVFQLSRSELMDITEAWVHAAFTIEPKDLAYMERLVMLQNRRVSKLRTV
stoichiometry N (cross-linking): ~3
stoichiometry N (SEC): 3
